The series concerns MS2 coat protein. The series is described as follows: apparent KD of MS2 coat protein; designed switch direction (-1 OFF switch, 1 ON switch): -1; higher = weaker reporter binding. The procedure, abridged:
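The reported apparent KD is a per-design median over clusters, from curve fits of normalised cluster fluorescence. Protein titrations used SNAP-549-labelled MS2 coat protein, doubled from 0.7 or 1.5 nM to 3 µM, in Tris-HCl pH 7.5 buffer with KCl, MgCl2, BSA, DTT, tRNA and Tween-20, with no input, 200 uM small-molecule ligand, or an oligonucleotide input. The RNA switches were transcribed on Illumina chips by stalled E. coli RNA polymerase.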

Setting [1] is: Eterna round: R95, input ligand: microRNA oligo, concentration not stated.
Where [2] appears, read: input ligand: microRNA oligo, concentration not stated.
[3] abbreviates: Eterna round: R95, input ligand: FMN 200 uM.
The mark [4] stands for this setting: Eterna round: R95, input ligand: none.

Regarding “UGUCUGUCAGGAUAUCCAGAAGAGAAGAAAGUAAGAUGAGUGGAGAAGGGACAUGAGGAUCACCCAUGUAAUUA [My frist] (puzzle: Exclusion 4)”, the “apparent KD of MS2 coat protein” value under setting [1] is 29.7 nM.
Take “AGAUCUUCCGUAAGGAUAUGUGUGAAACAGACGGCACAGAAGGUACAUGAGGAUCACCCAUGUUACGCCGCGUA [Eternabot (L1) Solution 85] (Eterna round: R97, puzzle: Brourd's mod of Exclusion 4)”: the “apparent KD of MS2 coat protein” value (input ligand: FMN 200 uM) was determined as 62.3 nM and the “apparent KD of MS2 coat protein” value (input ligand: none) turned out to be 19.1 nM.
The corresponding values for “UCCUCACCCAAGGAUAUCUGAGUCGGAACUAGCAGAGAAGGUGGCACAUGAGGAUCACCCAUGUAGACCAAUGC [Eternabot (L2) Solution 9] (Eterna round: R97, puzzle: Exclusion 6)” are 7.87 nM and 7.73 nM.
In the case of “UAUAUAUAGUAAGGAUAUGUAUAUAUUUUAGAAACAGAAGGUACUGACAUGAGGAUCACCCAUGUUUUAGUGUGGGCAUGUAGA [JMF's solution 67] (Eterna round: R96, puzzle: Exclusion NG 1)”, under setting [2], the “apparent KD of MS2 coat protein” value turned out to be 52.7 nM.
Turning to “UUAUUCAGAGGAUAUGCGCAUAGAUAAGACUUUUUUUCUUAACAUGAGGAUCACCCAUGUAGAAGGCUGUAAUA [Ex2 #57] (Eterna round: R97, puzzle: Exclusion 2)”, the “apparent KD of MS2 coat protein” value reads like this: (input ligand: FMN 200 uM) 19.8 nM; (input ligand: none) 18.4 nM.
On to “UGCGAAGAGUGAGGAUAUGUGCGACAAAGUUGCACAGAAGGCACAUGAGGAUCACCCAUGUGAGCUAGGUCGAAAGACCUAGCG [Omei Exc(NG)1 Av7] (Eterna round: R96, puzzle: Exclusion NG 1)”, for which the “apparent KD of MS2 coat protein” value (input ligand: FMN 200 uM) was 43.4 nM, the “apparent KD of MS2 coat protein” value under setting [2] is 17.3 nM and the “apparent KD of MS2 coat protein” value (input ligand: none) worked out at 24.8 nM.
As for “ACUAGAUGAGGAUAUGCAUAUUUUCGUGUUCUUCUAGAUUAACAUGAGGAUCACCCAUGUAGAAGGCGUCAAUA [Exclusion 2 - 15] (puzzle: Exclusion 2)”, the “apparent KD of MS2 coat protein” value under setting [1] was found to be 15.4 nM.
As to “ACCAAAGCAGUAGGAUAUACGCACAUGAGGAUCACCCAUGUAGCACGUCUCCAGACACCGAAUGCGUAGAAGGACUGCGCGCAA [Eternabot solution 3] (Eterna round: R96, puzzle: Exclusion NG 2)”, the “apparent KD of MS2 coat protein” value was determined as 7.86 nM (input ligand: FMN 200 uM), 4.69 nM under setting [2] and 17 nM (input ligand: none).
“GAAAAGGUAGGAUAUACGAAAAAAAAGGCUAGAAAAAAAACACAUGAGGAUCACCCAUGUAGAAGGACCAAAAG [salish99_ex2_r3_068] (puzzle: Exclusion 2)”: the “apparent KD of MS2 coat protein” value was determined as 28.7 nM under setting [3], 28.8 nM under setting [1] and 24 nM under setting [4].
Turning to “AUAUUGUGAGGAUAUCAGGUGUGCUAGCGUACUGGUACAUCUGAGAAGGCACAUGAGGAUCACCCAUGUUUCUU [Mat - Exclusion 4 - Mod of JL - D42] (puzzle: Exclusion 4)”, the “apparent KD of MS2 coat protein” value under setting [1] came out at 15.2 nM.
Turning to “CCUCGUAACUAGGAUAUCCGAAAUAAGCGAGGAGGAGAAGGAGUUACAUGAGGAUCACCCAUGUGAUAUAAAGA [Orisxe] (puzzle: Exclusion 6)”, the “apparent KD of MS2 coat protein” value was 46.9 nM under setting [3], 15.5 nM under setting [1] and 17.4 nM under setting [4].
The corresponding values for “AAAAGGCUAGGAUAUCGCGGUAACAACAUGAGGAUCACCCAUGUGAAGGUGUCUUCUGCCCGAGAAGGAGCAGAGU [Tientixe] (puzzle: Exclusion 5)” are 43.2 nM, 25.6 nM and 29.9 nM.
As for “GGUUGACAUGAGGAUCACCCAUGUGAGGAUAUGCGAGAGAAAAAAGUGAGGAAGUAAAGCAGAAGGCGCUGUCG [salish99-ex1_r3_004] (puzzle: Exclusion 1)”, the “apparent KD of MS2 coat protein” value by setting is: under setting [3], 51.6 nM; under setting [1], 200 nM; under setting [4], 449 nM.
As for “GAAAACGCAGAGGAUAUUUCAGAUCCUAGCUGCAAAGAAGGCUGCACAUGAGGAUCACCCAUGUGGUCCUGAAA [Quesina mod] (Eterna round: R97, puzzle: Exclusion 6)”, the “apparent KD of MS2 coat protein” value was 116 nM (input ligand: FMN 200 uM) and 38.6 nM (input ligand: none).
Consider “AAUUAUUUUUGAGGAUAUCGUGGUGAAACACCACGAGAAGGCAAGAUACACAUGAGGAUCACCCAUGUGAGCCUGAUGCUUAUG [Ex NG1 #52] (Eterna round: R96, puzzle: Exclusion NG 1)”, for which the “apparent KD of MS2 coat protein” value under setting [2] was 13.2 nM.
Still for that read-out and setting: then “UAUAUAUAGUAAGGAUAUGUAUUUAUUUUAUAAACAGAAGGUACUGACAUGAGGAUCACCCAUGUUUUAGUGUGGGCAUGUAGA [JMF's solution 4] (Eterna round: R96, puzzle: Exclusion NG 1)”, with 67 nM.
As for “AUUUUGUGAGGAUAUUAGUUGUAGAAAAUUGUUAGUAUAGCUGAGAAGGCACAUGAGGAUCACCCAUGUAAAUC [JR_Ex4_Sub042] (Eterna round: R97, puzzle: Exclusion 4)”, the “apparent KD of MS2 coat protein” value (input ligand: FMN 200 uM) stood at 91 nM and the “apparent KD of MS2 coat protein” value (input ligand: none) turned out to be 19 nM.
Consider “GGUGCGUUUGUGAGGAUAUGCUGGUCCUUGGAUCGGCAGAAGGCACAUGAGGAUCACCCAUGUGGUGUCGUACC [salish99_Bmod_Ex4_035] (puzzle: Brourd's mod of Exclusion 4)”, for which the “apparent KD of MS2 coat protein” value under setting [1] was found to be 280 nM.
For “AAAUCUCACGUGAGGAUAUCCUGGGCAACGUCCACGGAGAAGGCACAUGAGGAUCACCCAUGUGUUCGCAAUAC [Brourd's mod of Exclusion 4 (MOD2 of Nando's BmEX4 C.1)] (Eterna round: R97, puzzle: Brourd's mod of Exclusion 4)”, the “apparent KD of MS2 coat protein” value by setting is: (input ligand: FMN 200 uM) 22.3 nM; (input ligand: none) 17.9 nM.
With “AGCCACAGAGGAUAUACAUACAUCCAGUAGCAGAUAUUGCUACAUGAGGAUCACCCAUGUAGAAGGCUGUGGCA [Omei Ex2 BD B21] (Eterna round: R97, puzzle: Exclusion 2)”, the “apparent KD of MS2 coat protein” value turned out to be 139 nM (input ligand: FMN 200 uM) and 1040 nM (input ligand: none).
Regarding “CCAACCAGAGGAUAUGCGCAUAGAUCAGACUUUGUUUCUUAACAUGAGGAUCACCCAUGUAGAAGGCUGUAACC [Ex2 #76] (Eterna round: R97, puzzle: Exclusion 2)”, the “apparent KD of MS2 coat protein” value was found to be 21.6 nM (input ligand: FMN 200 uM) and 20 nM (input ligand: none).
Regarding “AAGAGUGCAGGAUAUACGUGAUGGAGUAGGAUGAGAGAAGGACAUGAGGAUCACCCAUGUAGAAGGGCAGAGAG [JR_Exclu2_Sub059] (puzzle: Exclusion 2)”, the “apparent KD of MS2 coat protein” value turned out to be 28.7 nM under setting [3], 43.4 nM under setting [1] and 31 nM under setting [4].
For the sequence “AGUAACCGUCACGAAAGUGAUGGUUACGCAAGUAAAUGUACAUGAGGAUCACCCAUGUCCUCAUUUGCUCGUCUUAU [Sensor 3 - 44] (puzzle: Sensor v3, turn-off variant 2)”, the “apparent KD of MS2 coat protein” value is, setting by setting: under setting [3], 188 nM; under setting [1], 330 nM.
As for “UAUUAGCAAGCAACUGGGUACAUGAGGAUCACCCAUGUGCUCGUCUUAUAAGGUACUGUGACGAAAGUCACUGUACC [mod--Eli14] (Eterna round: R97, puzzle: Sensor, turn-off variant 1)”, the “apparent KD of MS2 coat protein” value (input ligand: FMN 200 uM) came to 17.8 nM and the “apparent KD of MS2 coat protein” value (input ligand: none) is 16.3 nM.
On to “UCUGUUAUGCGAGGAUAUCGACCAUUCCUCUUAACAUGAGGAUCACCCAUGUGCUAAUCCUUCAACGAGAAGGCGCUCUUACUC [JR_ExcNG2_Sub069] (Eterna round: R96, puzzle: Exclusion NG 2)”, for which the “apparent KD of MS2 coat protein” value runs as follows: (input ligand: FMN 200 uM) 346 nM; under setting [2], 114 nM; (input ligand: none) 268 nM.
Regarding “AUUUAUGGAGGAUAUACUUGAGGAUCACCCAAGUGGAGUCCCAAAUGGGCGGUAAAUAGUAGAAGGCCGUCUUA [jl-ex3-4.49 ViennaUCT mod] (Eterna round: R97, puzzle: Exclusion 3)”, the “apparent KD of MS2 coat protein” value turned out to be 17.2 nM (input ligand: FMN 200 uM) and 16.5 nM (input ligand: none).
Regarding “UUAAAUCAUGUAGGAUAUGCGUGGCAAAGCUAUGCAGAAGGACAUGAGGAUCACCCAUGUUCUAGCGUCUGAGAACAGAUGCUA [Mat - Exclusion NG 1 - Mod of JL - D78] (Eterna round: R96, puzzle: Exclusion NG 1)”, the “apparent KD of MS2 coat protein” value by setting is: (input ligand: FMN 200 uM) 566 nM; under setting [2], 24.2 nM; (input ligand: none) 47.7 nM.
Turning to “ACAAGCAGAGAGUAAAUGGACAUGAGGAUCACCCAUGUGAGUCCAAGGAGAUAAGAUAUAUUAUUGGCUCGUCUUAU [AK-miRNA-r3-20] (Eterna round: R97, puzzle: Sensor, turn-off variant 1)”, the “apparent KD of MS2 coat protein” value reads like this: (input ligand: FMN 200 uM) 75.2 nM; (input ligand: none) 104 nM.
With “ACAUGAGGAUCACCCAUGUUGUACUGGAUAGGGUGGUCCAGGUAGGAUAUGCAAACGCGUUGCGAGCAGAAGGACCACAGCCAG [Ceed] (Eterna round: R96, puzzle: Exclusion NG 3)”, the “apparent KD of MS2 coat protein” value by setting is: (input ligand: FMN 200 uM) 49.8 nM; under setting [2], 29.4 nM; (input ligand: none) 35.3 nM.
Turning to “GCAGAUGUAGUGAGGAUAUGCUCUACCUCGGUAGAGCAGAAGGCACAUGAGGAUCACCCAUGUGAUUCAUCUGC [Omei Ex4B B7] (Eterna round: R97, puzzle: Brourd's mod of Exclusion 4)”, the “apparent KD of MS2 coat protein” value (input ligand: FMN 200 uM) was 211 nM and the “apparent KD of MS2 coat protein” value (input ligand: none) came out at 28.6 nM.
For “AAUAACAAGCAGAUCCUAAACAUGAGGAUCACCCAUGUGCUCGUCUUGUUGUACUAUCACUCGAAAGUGAUAGUACA (Eterna round: R97, puzzle: Sensor, turn-off variant 1)”, the “apparent KD of MS2 coat protein” value reads like this: (input ligand: FMN 200 uM) 90.1 nM; (input ligand: none) 104 nM.
Regarding “AAGAAACGAGGAUAUACAGUUGAGUGAGAGAGGGAAGUGUGACAUGAGGAUCACCCAUGUAGAAGGCGUGAGAG [JR_Exclu2_Sub087] (puzzle: Exclusion 2)”, the “apparent KD of MS2 coat protein” value reads like this: under setting [3], 49.1 nM; under setting [1], 40.4 nM; under setting [4], 76.8 nM.

These data come from the supplement of paper PMC9170038.
